According to patent US9549967B2, “Regulation of sodium channels by PLUNC proteins” (The University of North Carolina at Chapel Hill, priority 2009, dated 2017):
Entries after “also recorded” stand apart in the source; their conditions may differ.

T1: ENaC (Homo sapiens, UniProt P37088+P51168+P51170)
T1 construct: endogenous in cells; host or cells: primary human bronchial epithelial cultures
T1 sequence (P37088 1-669): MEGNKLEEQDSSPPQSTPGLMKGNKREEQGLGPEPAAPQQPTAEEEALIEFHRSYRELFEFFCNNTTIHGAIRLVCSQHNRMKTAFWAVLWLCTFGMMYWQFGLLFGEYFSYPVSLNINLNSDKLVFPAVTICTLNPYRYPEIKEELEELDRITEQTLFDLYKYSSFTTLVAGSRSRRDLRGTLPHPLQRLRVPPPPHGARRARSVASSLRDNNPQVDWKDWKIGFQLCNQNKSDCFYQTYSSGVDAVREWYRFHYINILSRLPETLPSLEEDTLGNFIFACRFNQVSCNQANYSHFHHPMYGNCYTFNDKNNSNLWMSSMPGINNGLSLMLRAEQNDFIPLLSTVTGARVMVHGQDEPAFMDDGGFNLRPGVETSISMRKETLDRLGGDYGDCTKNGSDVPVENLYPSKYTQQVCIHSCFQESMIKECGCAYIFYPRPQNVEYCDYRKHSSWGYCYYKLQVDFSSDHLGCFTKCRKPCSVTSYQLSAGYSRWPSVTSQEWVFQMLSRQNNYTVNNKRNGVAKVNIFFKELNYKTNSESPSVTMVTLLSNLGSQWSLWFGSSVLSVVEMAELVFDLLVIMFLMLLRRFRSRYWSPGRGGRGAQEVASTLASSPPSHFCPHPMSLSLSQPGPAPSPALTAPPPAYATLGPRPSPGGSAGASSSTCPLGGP
T1 sequence (P51168 1-640): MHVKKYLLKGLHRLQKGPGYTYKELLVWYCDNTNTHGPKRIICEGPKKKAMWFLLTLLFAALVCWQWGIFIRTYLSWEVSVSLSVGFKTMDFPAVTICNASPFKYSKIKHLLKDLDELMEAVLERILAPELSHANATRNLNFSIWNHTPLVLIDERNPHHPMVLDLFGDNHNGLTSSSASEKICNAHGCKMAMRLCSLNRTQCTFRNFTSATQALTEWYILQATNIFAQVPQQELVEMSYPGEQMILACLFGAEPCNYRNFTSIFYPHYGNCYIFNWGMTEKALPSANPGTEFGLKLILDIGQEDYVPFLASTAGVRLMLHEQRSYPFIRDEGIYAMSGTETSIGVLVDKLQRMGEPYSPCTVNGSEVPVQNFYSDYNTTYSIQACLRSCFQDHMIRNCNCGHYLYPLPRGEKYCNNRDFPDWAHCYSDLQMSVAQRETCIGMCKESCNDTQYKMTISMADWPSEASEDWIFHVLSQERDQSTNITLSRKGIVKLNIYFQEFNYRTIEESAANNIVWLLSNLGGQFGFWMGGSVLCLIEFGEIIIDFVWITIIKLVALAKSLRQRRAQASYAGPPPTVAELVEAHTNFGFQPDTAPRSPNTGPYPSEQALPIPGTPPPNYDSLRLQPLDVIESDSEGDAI
T1 sequence (P51170 1-649): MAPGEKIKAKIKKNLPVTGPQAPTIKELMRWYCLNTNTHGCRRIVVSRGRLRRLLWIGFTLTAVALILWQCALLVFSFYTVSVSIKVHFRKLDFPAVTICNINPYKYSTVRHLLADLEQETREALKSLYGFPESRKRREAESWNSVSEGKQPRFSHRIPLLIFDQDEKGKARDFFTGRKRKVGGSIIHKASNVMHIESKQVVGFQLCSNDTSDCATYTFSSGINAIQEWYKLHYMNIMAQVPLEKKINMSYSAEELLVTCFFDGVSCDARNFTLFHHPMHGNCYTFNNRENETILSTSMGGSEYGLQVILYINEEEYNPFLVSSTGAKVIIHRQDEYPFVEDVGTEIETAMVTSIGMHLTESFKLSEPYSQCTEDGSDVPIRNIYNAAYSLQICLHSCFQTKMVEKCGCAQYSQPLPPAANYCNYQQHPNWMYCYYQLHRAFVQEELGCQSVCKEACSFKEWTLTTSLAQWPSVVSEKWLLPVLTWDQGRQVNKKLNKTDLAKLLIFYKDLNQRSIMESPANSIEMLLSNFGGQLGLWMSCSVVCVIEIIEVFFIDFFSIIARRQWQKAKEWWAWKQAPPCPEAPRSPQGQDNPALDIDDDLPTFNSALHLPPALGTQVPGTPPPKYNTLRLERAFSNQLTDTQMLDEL

T2: αβγENaC (Rattus norvegicus, UniProt P37089+P37090+P37091)
T2 construct: expressed in transfected cells; host or cells: Xenopus laevis oocytes (cRNA injection)
T2 sequence (P37089 1-698): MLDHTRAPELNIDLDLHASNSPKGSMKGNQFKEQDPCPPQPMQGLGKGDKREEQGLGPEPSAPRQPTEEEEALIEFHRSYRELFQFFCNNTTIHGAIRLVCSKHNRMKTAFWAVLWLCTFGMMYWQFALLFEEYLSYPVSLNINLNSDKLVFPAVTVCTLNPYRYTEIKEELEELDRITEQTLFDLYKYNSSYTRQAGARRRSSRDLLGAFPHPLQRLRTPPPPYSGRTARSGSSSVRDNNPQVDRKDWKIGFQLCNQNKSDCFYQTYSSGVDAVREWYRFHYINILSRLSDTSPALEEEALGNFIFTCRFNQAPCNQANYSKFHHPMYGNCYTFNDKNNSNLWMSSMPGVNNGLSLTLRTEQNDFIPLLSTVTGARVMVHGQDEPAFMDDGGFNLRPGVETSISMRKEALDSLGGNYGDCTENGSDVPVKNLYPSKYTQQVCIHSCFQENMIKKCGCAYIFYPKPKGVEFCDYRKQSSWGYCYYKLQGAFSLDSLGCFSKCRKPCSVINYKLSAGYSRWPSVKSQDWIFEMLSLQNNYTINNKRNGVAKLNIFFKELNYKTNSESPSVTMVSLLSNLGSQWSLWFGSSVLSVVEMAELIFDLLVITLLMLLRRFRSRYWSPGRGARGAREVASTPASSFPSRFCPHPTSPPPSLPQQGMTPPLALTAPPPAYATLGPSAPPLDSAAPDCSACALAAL
T2 sequence (P37090 1-638): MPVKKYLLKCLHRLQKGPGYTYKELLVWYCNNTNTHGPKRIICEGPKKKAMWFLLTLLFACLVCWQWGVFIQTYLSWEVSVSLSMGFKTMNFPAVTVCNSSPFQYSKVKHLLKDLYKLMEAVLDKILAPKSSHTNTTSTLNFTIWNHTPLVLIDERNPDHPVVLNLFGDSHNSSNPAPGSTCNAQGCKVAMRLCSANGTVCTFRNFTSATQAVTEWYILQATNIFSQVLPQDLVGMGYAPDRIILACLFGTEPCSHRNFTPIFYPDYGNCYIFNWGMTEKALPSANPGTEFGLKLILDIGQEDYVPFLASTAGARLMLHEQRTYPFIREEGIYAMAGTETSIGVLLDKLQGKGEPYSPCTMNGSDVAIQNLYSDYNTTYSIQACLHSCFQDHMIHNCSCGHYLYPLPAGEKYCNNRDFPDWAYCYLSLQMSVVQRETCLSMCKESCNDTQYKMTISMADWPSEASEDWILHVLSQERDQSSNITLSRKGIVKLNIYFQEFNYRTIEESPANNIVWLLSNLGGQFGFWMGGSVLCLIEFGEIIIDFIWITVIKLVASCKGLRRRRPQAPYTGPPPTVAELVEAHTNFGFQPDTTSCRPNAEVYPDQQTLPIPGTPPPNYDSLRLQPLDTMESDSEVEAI
T2 sequence (P37091 1-650): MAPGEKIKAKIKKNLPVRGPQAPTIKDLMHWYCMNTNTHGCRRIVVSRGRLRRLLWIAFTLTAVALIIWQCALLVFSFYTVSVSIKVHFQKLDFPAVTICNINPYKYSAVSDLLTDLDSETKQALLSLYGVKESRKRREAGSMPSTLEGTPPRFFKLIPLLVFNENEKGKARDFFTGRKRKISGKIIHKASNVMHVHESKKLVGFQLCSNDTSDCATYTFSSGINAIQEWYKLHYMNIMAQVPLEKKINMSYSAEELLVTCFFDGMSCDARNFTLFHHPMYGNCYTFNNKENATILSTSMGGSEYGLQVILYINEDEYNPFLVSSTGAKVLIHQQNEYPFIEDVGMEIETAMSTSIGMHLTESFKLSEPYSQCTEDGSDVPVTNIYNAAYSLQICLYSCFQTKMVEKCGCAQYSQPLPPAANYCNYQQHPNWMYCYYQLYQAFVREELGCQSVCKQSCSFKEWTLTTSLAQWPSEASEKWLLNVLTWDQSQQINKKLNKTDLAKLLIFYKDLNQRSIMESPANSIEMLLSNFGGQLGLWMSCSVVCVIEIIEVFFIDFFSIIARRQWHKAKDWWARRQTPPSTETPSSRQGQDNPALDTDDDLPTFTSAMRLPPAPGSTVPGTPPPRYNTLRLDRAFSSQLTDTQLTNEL

B1: recombinant SPLUNC1 that had been reduced with DTT: recombinant SPLUNC1 reduced with DTT (protein, UniProt Q9NP55 20-256, looked up)
BPI fold-containing family A …: QFGGLPVPLDQTLPLNVNPALPLSPTGLAGSLTNALSNGLLSGGLLGILENLPLLDILKPGGGTSGGLLGGLLGKVTSVIPGLNNIIDIKVTDPQLLELGLVQSPDGHRLYVTIPLGIKLQVNTPLVGASLLRLAVKLDITAEILAVRDKQERIHLVLGDCTHSPGSLQISLLDGLGPLPIQGLLDSLTGILNKVLPELVQGNVCPLVNEVLRGLDITLVHDIVNMLIHGLQFVIKV
modifications: DTT-reduced
B2: LPLUNC1: long PLUNC family member co-expressed in oocytes (protein)
chain: TLSPTAVLILGPKVIKEKLTQELKDHNATSILQQLPLLSAMREKPAGGIPVLGSLVNTVLKHIIWLKVITANILQLQVKPSANDQELLVKIPLDMVAGFNTPLVKTIVEFHMTTEAQATIRMDTSASGPTRLVLSDCATSHGSLRIQLLHKLSFLVNALAKQVMNLLVPSLPNLVKNQLCPVIEASFNGMYADLLQLVKVPISLSIDRLEFDLLYPAIKGDTIQLYLGAKLLDSQGKVTKWFNNSAASLTMPTLDNIPFSLIVSQDVVKAAVAAVLSPEEFMVLLDSVLPESAHRLKSSIGLINEKAADKLGSTQIVKILTQDTPEFFIDQGHAKVAQLIVLEVFPSSEALRPLFTLGIEASSEAQFYTKGDQLILNLNNISSDRIQLMNSGIGWFQPDVLKNIITEIIHSILLPNQNGKLRSGVPVSLVKALGFEAAESSLTKDALVLTPASLWKPSSPVSQ
B3: SPLUNC2: human SPLUNC2 protein (SEQ ID NO:2), co-expressed in oocytes (protein, listed as Homo sapiens)
chain: MLQLWKLVLLCGVLTGTSESLLDNLGNDLSNVVDKLEPVLHEGLETVDNTLKGILEKLKVDLGVLQKSSAWQLAKQKAQEAEKLLNNVISKLLPTNTDIFGLKISNSLILDVKAEPIDDGKGLNLSFPVTANVTVAGPIIGQIINLKASLDLLTAVTIETDPQTHQPVAVLGECASDPTSISLSLLDKHSQIINKFVNSVINTLKSTVSSLLQKEICPLIRIFIHSLDVNVIQQVVDNPQHKTQLQTLI

Columns and labels:
ENaC = target: T1, ENaC; test: Transepithelial voltage under thin film conditions in human bronchial epithelial cultures (microelectrode); format: cell-based; settings: prewashed cultures, PD remeasured 45 min later; DTT-reduced vs 50 ng/ml recombinant SPLUNC1
Description: Tissue procurement and cell culture: Cells were harvested by enzymatic digestion from human bronchial tissue as previously described under a protocol approved by the UNC School of Medicine IRB (Tarran et al., J. Gen. Physiol. 127:591 (2006)). Human excess donor lungs and excised recipient lungs were obtained at the time of lung transplantation from portions of main stem or […] bronchi and cells were harvested by enzymatic digestion. All preparations were maintained at an air-liquid interface in a modified bronchial epithelial medium and used 2-5 weeks after seeding on 12 mm T-Clear inserts (Corning Costar) coated with human placental type VI collagen (Sigma). Phosphate buffered saline (PBS) was used for washing human bronchial epithelial culture mucosal surfaces.
Microelectrode studies. A single-barreled potential difference-sensing electrode was placed in the airway surface liquid by micromanipulator and used in conjunction with a macroelectrode in the serosal solution to measure transepithelial voltage using a voltmeter (World Precision Instruments). […] Transepithelial resistance was routinely measured using the EVOM system (WPI) as previously described (Tarran et al., J. Gen. Physiol. 127:591 (2006)).

αβγENaC = target: T2, αβγENaC; test: Amiloride-sensitive whole cell current in Xenopus laevis oocytes expressing ENaC (two electrode voltage clamp); format: cell-based; settings: co-expression with α,β,γ ENaC in oocytes, FIG. 13
Experimental: Oocyte studies. Xenopus laevis oocytes were harvested and injected as described (Donaldson, et al., J. Biol. Chem. 277:8338 (2002)). Defolliculated healthy stage V-VI oocytes were injected with 0.3 ng of cRNA of each ENaC subunit. Injected oocytes were kept in modified Barth's saline (in mM: 88 NaCl, 1 KCl, 2.4 NaHCO3, 0.3 Ca(NO3)2, 0.41 CaCl2, 0.82 MgSO4, and 15 HEPES, adjusted to pH 7.35 with Tris). Oocytes were studied 24 hr after injection using the two electrode voltage clamp technique as previously described (Donaldson, et al., J. Biol. Chem. 277:8338 (2002)). Oocytes were clamped at a holding potential of […]. The change in amiloride-sensitive whole cell current as an indicator of ENaC activity was determined by subtracting the corresponding current value measured in the presence of 10 μM amiloride from that measured before the application of amiloride.

Molecule	inhibition of the transepithelial PD (SPLUNC1 activity) (ENaC)	reduction of amiloride-sensitive ENaC current relative to CTRL (significance) (αβγENaC)
B1	abolished; also recorded: attenuated	
B2		no significant ENaC current reduction
B3		borderline significance
